Test results published in paper PMC9482650, “Quantitative fragmentomics allow affinity mapping of interactomes” (Nature Communications, 2022).

T1: APBA2_1, Q99767
T1 sequence (Q99767 563-664, limits assumed, looked up): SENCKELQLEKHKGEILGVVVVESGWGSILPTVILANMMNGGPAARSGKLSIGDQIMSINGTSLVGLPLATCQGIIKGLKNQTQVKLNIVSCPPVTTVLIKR

T2: APBA3_1, O96018
T2 sequence (O96018 389-490, limits assumed, looked up): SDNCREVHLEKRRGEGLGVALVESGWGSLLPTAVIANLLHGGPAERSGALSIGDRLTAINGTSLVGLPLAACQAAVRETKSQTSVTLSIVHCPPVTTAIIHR

T3: ARHGEF11, O15085
T3 sequence (O15085 42-136, limits assumed, looked up): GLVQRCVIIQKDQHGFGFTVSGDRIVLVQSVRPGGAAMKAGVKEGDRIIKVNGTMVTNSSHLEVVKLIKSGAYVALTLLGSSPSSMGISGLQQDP

T4: CARD11, Q9BXL7
T4 sequence (Q9BXL7 662-765, limits assumed, looked up): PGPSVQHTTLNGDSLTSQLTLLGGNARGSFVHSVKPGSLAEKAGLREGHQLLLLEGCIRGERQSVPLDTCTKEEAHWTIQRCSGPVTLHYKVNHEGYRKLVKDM

T5: FRMPD1, Q5SYB0
T5 sequence (Q5SYB0 52-145, limits assumed, looked up): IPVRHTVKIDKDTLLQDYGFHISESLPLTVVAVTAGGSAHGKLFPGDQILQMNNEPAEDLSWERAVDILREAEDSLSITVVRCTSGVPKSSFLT

T6: HTRA3, P83110
T6 sequence (P83110 354-453, limits assumed, looked up): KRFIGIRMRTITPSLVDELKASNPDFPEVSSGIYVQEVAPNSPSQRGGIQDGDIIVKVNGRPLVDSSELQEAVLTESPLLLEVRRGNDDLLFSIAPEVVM

T7: MPP6, Q9NZW5
T7 sequence (Q9NZW5 125-219, limits assumed, looked up): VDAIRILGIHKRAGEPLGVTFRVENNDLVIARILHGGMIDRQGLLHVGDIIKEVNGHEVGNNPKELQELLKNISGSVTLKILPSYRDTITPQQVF

T8: MPP7, Q5T2T1
T8 sequence (Q5T2T1 134-230, limits assumed, looked up): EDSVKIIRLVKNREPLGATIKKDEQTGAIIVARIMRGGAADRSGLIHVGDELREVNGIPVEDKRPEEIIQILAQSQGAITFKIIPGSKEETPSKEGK

T9: NHERF3_4, Q5T2W1
T9 sequence (Q5T2W1 373-468, limits assumed, looked up): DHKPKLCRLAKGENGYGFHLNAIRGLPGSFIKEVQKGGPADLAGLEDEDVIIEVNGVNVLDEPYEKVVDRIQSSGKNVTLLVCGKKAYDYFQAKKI

T10: PDZD7_3, Q9H5P4
T10 sequence (Q9H5P4 857-944, limits assumed, looked up): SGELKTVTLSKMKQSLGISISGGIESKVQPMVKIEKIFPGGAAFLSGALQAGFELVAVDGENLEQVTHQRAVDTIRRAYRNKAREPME

T11: RHPN1, Q8TCX5
T11 sequence (Q8TCX5 508-602, limits assumed, looked up): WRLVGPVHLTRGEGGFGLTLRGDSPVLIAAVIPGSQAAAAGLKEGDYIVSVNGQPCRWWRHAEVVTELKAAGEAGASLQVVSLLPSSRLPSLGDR

T12: SNTA1, Q13424
T12 sequence (Q13424 82-180, limits assumed, looked up): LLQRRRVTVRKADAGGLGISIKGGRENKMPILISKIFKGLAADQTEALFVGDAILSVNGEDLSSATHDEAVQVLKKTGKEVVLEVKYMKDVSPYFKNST

T13: SNTG1, Q9NSN8
T13 sequence (Q9NSN8 52-150, limits assumed, looked up): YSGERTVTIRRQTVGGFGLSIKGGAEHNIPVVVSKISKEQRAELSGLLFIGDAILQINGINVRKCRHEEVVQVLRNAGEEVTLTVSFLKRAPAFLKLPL

T14: TJP3_3, O95049
T14 sequence (O95049 375-456, limits assumed, looked up): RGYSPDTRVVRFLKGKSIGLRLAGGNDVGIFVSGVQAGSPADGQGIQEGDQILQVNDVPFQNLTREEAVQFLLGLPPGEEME

T15: TX1BP3, O14907
T15 sequence (O14907 10-122, limits assumed, looked up): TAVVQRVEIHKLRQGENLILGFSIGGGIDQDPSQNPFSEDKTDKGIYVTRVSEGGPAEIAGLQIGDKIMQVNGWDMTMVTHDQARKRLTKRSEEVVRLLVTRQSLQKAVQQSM


What was measured:
Experiment in all cases: holdup assay
Parameters in all cases: key: below the threshold = too weak to quantify, mostly under pKd 3.1 to 4
Settings in all cases: plain residues with an end cap or a label only (N-terminal biotin on a linker: ado-ado)
APBA2_1, Q99767 = molecular target: T1, APBA2_1, Q99767
APBA3_1, O96018 = molecular target: T2, APBA3_1, O96018
ARHGEF11, O15085 = molecular target: T3, ARHGEF11, O15085
CARD11, Q9BXL7 = molecular target: T4, CARD11, Q9BXL7
CASK, O14936 = molecular target: CASK, O14936
FRMPD1, Q5SYB0 = molecular target: T5, FRMPD1, Q5SYB0
FRMPD2_1, Q68DX3 = molecular target: FRMPD2_1, Q68DX3
GRIP2_4, Q9C0E4 = molecular target: GRIP2_4, Q9C0E4
GRIP2_7, Q9C0E4 = molecular target: GRIP2_7, Q9C0E4
HTRA3, P83110 = molecular target: T6, HTRA3, P83110
MAGI1_1, Q96QZ7 = molecular target: MAGI1_1, Q96QZ7
MAGI2_6, Q86UL8 = molecular target: MAGI2_6, Q86UL8
MPP6, Q9NZW5 = molecular target: T7, MPP6, Q9NZW5
MPP7, Q5T2T1 = molecular target: T8, MPP7, Q5T2T1
NHERF3_4, Q5T2W1 = molecular target: T9, NHERF3_4, Q5T2W1
PDZD7_3, Q9H5P4 = molecular target: T10, PDZD7_3, Q9H5P4
RHPN1, Q8TCX5 = molecular target: T11, RHPN1, Q8TCX5
SNTA1, Q13424 = molecular target: T12, SNTA1, Q13424
SNTG1, Q9NSN8 = molecular target: T13, SNTG1, Q9NSN8
TJP1_2, Q07157 = molecular target: TJP1_2, Q07157
TJP3_3, O95049 = molecular target: T14, TJP3_3, O95049
TX1BP3, O14907 = molecular target: T15, TX1BP3, O14907

GRIP2_7, Q9C0E4, sequence (Q9C0E4 934-1023): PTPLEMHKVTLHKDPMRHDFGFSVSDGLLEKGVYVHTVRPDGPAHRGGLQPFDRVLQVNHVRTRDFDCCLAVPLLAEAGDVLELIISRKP
FRMPD2_1, Q68DX3, sequence (Q68DX3 770-861): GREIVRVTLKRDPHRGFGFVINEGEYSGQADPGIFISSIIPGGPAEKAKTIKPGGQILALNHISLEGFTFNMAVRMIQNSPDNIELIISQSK
MAGI2_6, Q86UL8, sequence (Q86UL8 1141-1229): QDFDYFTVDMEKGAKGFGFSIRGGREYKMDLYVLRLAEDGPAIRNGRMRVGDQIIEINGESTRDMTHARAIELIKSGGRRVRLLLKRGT
GRIP2_4, Q9C0E4, sequence (Q9C0E4 446-548): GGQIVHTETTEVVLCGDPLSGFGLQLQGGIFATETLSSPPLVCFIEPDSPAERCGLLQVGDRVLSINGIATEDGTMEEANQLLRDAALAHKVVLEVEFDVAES
CASK, O14936, sequence (O14936 487-570): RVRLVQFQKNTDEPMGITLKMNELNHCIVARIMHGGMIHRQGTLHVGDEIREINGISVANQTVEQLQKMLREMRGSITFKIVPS
TJP1_2, Q07157, sequence (Q07157 181-274): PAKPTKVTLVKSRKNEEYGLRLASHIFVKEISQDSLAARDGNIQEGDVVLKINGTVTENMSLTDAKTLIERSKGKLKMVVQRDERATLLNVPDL
MAGI1_1, Q96QZ7, sequence (Q96QZ7 1-106): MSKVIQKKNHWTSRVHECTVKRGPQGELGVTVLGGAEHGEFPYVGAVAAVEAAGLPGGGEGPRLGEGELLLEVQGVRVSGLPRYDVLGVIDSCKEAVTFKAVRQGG

Binder | pKd (APBA2_1, Q99767) | pKd (APBA3_1, O96018) | pKd (ARHGEF11, O15085) | pKd (CARD11, Q9BXL7) | pKd (CASK, O14936) | pKd (FRMPD1, Q5SYB0) | pKd (FRMPD2_1, Q68DX3) | pKd (GRIP2_4, Q9C0E4) | pKd (GRIP2_7, Q9C0E4) | pKd (HTRA3, P83110) | pKd (MAGI1_1, Q96QZ7) | pKd (MAGI2_6, Q86UL8) | pKd (MPP6, Q9NZW5) | pKd (MPP7, Q5T2T1) | pKd (NHERF3_4, Q5T2W1) | pKd (PDZD7_3, Q9H5P4) | pKd (RHPN1, Q8TCX5) | pKd (SNTA1, Q13424) | pKd (SNTG1, Q9NSN8) | pKd (TJP1_2, Q07157) | other results
TISFTQTSQF [SLC1A1, P43005] | below the threshold | below the threshold | 3.79 | below the threshold | below the threshold | below the threshold | below the threshold | below the threshold | below the threshold | below the threshold | below the threshold | below the threshold | below the threshold | below the threshold | 4.41 | below the threshold | 3.73 | below the threshold | below the threshold | below the threshold | pKd (TJP3_3, O95049): below the threshold; pKd (TX1BP3, O14907): below the threshold
PSHPRLQTHV [KIRREL2, Q6UWL6] | below the threshold | below the threshold | 4.06 | below the threshold | below the threshold | below the threshold | below the threshold | below the threshold | below the threshold | below the threshold | below the threshold | below the threshold | 3.59 | below the threshold | below the threshold | 4.61 | 4.11 | below the threshold | below the threshold | below the threshold | pKd (TJP3_3, O95049): below the threshold; pKd (TX1BP3, O14907): 4.64
NVYGIESVKI [GRIA2, P42262] | below the threshold | below the threshold | 3.58 | below the threshold | below the threshold | below the threshold | 3.56 | below the threshold | below the threshold | 3.64 | 3.59 | below the threshold | below the threshold | below the threshold | 3.75 | below the threshold | 3.81 | below the threshold | 3.65 | below the threshold | pKd (TJP3_3, O95049): below the threshold; pKd (TX1BP3, O14907): below the threshold
GIKKITSTAL [RPS6KA3, P51812] | below the threshold | below the threshold | 5.01 | below the threshold | below the threshold | below the threshold | 3.54 | below the threshold | below the threshold | below the threshold | below the threshold | 4.08 | below the threshold | below the threshold | 5.4 | 4.92 | 3.93 | 3.94 | 3.68 | below the threshold | pKd (TJP3_3, O95049): below the threshold; pKd (TX1BP3, O14907): 4.59
NNNVVKVDSV [MTNR1A, P48039] | below the threshold | below the threshold | below the threshold | below the threshold | below the threshold | below the threshold | below the threshold | below the threshold | below the threshold | below the threshold | below the threshold | below the threshold | below the threshold | below the threshold | below the threshold | below the threshold | below the threshold | below the threshold | below the threshold | below the threshold | pKd (TJP3_3, O95049): below the threshold; pKd (TX1BP3, O14907): below the threshold
SVTSERETNI [SLC16A7, O60669] | below the threshold | below the threshold | below the threshold | below the threshold | below the threshold | below the threshold | below the threshold | below the threshold | below the threshold | below the threshold | below the threshold | 3.5 | 3.52 | 3.48 | below the threshold | 4.69 | 4.57 | 5.09 | 4.61 | below the threshold | pKd (TJP3_3, O95049): below the threshold; pKd (TX1BP3, O14907): below the threshold
